The subject of series [1] is subjects with symptomatic eosinophilic esophagitis (EoE). The series is described as follows: Phase 2 study in EoE patients: EoE endoscopic reference score (EREF). The conditions noted are these: treatment with RPC4046. Format: in vivo, human. Here is the method:
Safety was monitored throughout the study. […] The study was powered for the primary endpoint.
In further analysis, the mean eosinophilic esophagitis endoscopic reference score (EREF) in subjects at week 16 was analyzed for placebo and the two treatment arms. The EREF score is an additional secondary endpoint that is evaluated based on the presence of inflammatory markers (e.g., being positive for edema, exudates and/or furrows) and/or remodeling markers (e.g., being positive for fixed rings and/or strictures).
The results of the EREF study was further inspected by analyzing composite EREF score for inflammatory markers or remodeling markers.

In another series the target is human type IL-13 (Homo sapiens, UniProt P35225, Q144R). The following applies: see US patent pub. No. 2014/0341913; cited from earlier work.
Chain of human type IL-13 (P35225 15-146 Q144R limits assumed): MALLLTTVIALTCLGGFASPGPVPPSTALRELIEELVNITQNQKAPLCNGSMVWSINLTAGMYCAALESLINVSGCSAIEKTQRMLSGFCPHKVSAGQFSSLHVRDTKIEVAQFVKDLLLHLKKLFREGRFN
Series [2] has as its system subjects with symptomatic eosinophilic esophagitis (EoE). The series is described as follows: Phase 2 study in EoE patients: EEsAI PRO score. In kind it is in vivo, human. The conditions noted are these: for EEsAI PRO score, Mean change / EEsAI PRO score, LSMD versus placebo: Change to Week 16. Set-up: EEsAI PRO score, Mean / EEsAI PRO score, Median: scale not given here. The method, then:
Additionally, a comparison of the mean EEsAI PRO scores at baseline and at week 16 between the placebo group and the treatment group was conducted.

B1: RPC4046: recombinant humanized, high-affinity, selective anti-IL-13 monoclonal antibody; heavy chain variable region SEQ ID NO: 2, light chain variable region SEQ ID NO: 3 (antibody, V domains shown)
VH: EVTLRESGPGLVKPTQTLTLTCTLYGFSLSTSDMGVDWIRQPPGKGLEWLAHIWWDDVKRYNPALKSRLTISKDTSKNQVVLKLTSVDPVDTATYYCARTVSSGYIYYAMDYWGQGTLVTVSS
VL: DIQMTQSPSSLSASVGDRVTISCRASQDIRNYLNWYQQKPGKAPKLLIFYTSKLHSGVPSRFSGSGSGTDYTLTISSLQPEDIATYYCQQGNTLPLTFGGGTKVEIK
Turning to B1, the “EREF total score at week 16” value in series [1] is on record as “net lowering of EREF score”. The “binding affinity to helices A and D of interleukin 13 (IL-13)” value with human type IL-13 is listed as “binds with great affinity”. Besides, the “mean EEsAI PRO at week 16” value in series [2] (180 mg and 360 mg, week 16) is reported as “dose-dependent reduction”. The “EEsAI PRO score, Mean” value in series [2] (180 mg, Baseline) is recorded as 58.1; in series [2] (180 mg, Week 16) it was 39.3; in series [2] (360 mg, Baseline), 56.2; in series [2] (360 mg, Week 16), 33.2. Moreover, the “EEsAI PRO score, Median” value is 61.0 in series [2] (180 mg, Baseline); 49.0 in series [2] (180 mg, Week 16); 58.0 in series [2] (360 mg, Baseline); 30.5 in series [2] (360 mg, Week 16). Moreover, the “EEsAI PRO score, Mean change” value in series [2] (180 mg) is listed as −19.8; in series [2] (180 mg, non-steroid-refractory), −20.4; in series [2] (180 mg, steroid refractory), −19.1; in series [2] (360 mg) it was −23.0; in series [2] (360 mg, non-steroid-refractory) it was −25.2; in series [2] (360 mg, steroid refractory), −20.8. Besides, the “EEsAI PRO score, LSMD versus placebo” value in series [2] (180 mg, ANCOVA) is listed as −4.0; in series [2] (180 mg, non-steroid-refractory), 4.9; in series [2] (180 mg, steroid refractory) it was −13.5; in series [2] (360 mg, ANCOVA) it was −7.2; in series [2] (360 mg, non-steroid-refractory), −1.2; in series [2] (360 mg, steroid refractory) it was −15.5. In addition, the “mean EEsAI PRO score in the steroid refractory sub-group” value in series [2] (sub-group analysis, week 16) is on record as “statistically significant reduction”.

The values are drawn from patent publication US12129294B2, “Methods of treatment of diseases in which IL-13 activity is detrimental using anti-IL-13 antibodies” (AbbVie Inc., priority 2016, dated 2024).
